We go through two variants from IntAct's records for PubMed 23532844.

The chains are these.
B1: Jouberin (Homo sapiens), Q8N157 (parent)
chain: MPTAESEAKVKTKVRFEELLKTHSDLMREKKKLKKKLVRSEENISPDTIRSNLHYMKETTSDDPDTIRSNLPHIKETTSDDVSAANTNNLKKSTRVTKNKLRNTQLATENPNGDASVEEDKQGKPNKKVIKTVPQLTTQDLKPETPENKVDSTHQKTHTKPQPGVDHQKSEKANEGREETDLEEDEELMQAYQCHVTEEMAKEIKRKIRKKLKEQLTYFPSDTLFHDDKLSSEKRKKKKEVPVFSKAETSTLTISGDTVEGEQKKESSVRSVSSDSHQDDEISSMEQSTEDSMQDDTKPKPKKTKKKTKAVADNNEDVDGDGVHEITSRDSPVYPKCLLDDDLVLGVYIHRTDRLKSDFMISHPMVKIHVVDEHTGQYVKKDDSGRPVSSYYEKENVDYILPIMTQPYDFKQLKSRLPEWEEQIVFNENFPYLLRGSDESPKVILFFEILDFLSVDEIKNNSEVQNQECGFRKIAWAFLKLLGANGNANINSKLRLQLYYPPTKPRSPLSVVEAFEWWSKCPRNHYPSTLYVTVRGLKVPDCIKPSYRSMMALQEEKGKPVHCERHHESSSVDTEPGLEESKEVIKWKRLPGQACRIPNKHLFSLNAGERGCFCLDFSHNGRILAAACASRDGYPIILYEIPSGRFMRELCGHLNIIYDLSWSKDDHYILTSSSDGTARIWKNEINNTNTFRVLPHPSFVYTAKFHPAVRELVVTGCYDSMIRIWKVEMREDSAILVRQFDVHKSFINSLCFDTEGHHMYSGDCTGVIVVWNTYVKINDLEHSVHHWTINKEIKETEFKGIPISYLEIHPNGKRLLIHTKDSTLRIMDLRILVARKFVGAANYREKIHSTLTPCGTFLFAGSEDGIVYVWNPETGEQVAMYSDLPFKSPIRDISYHPFENMVAFCAFGQNEPILLYIYDFHVAQQEAEMFKRYNGTFPLPGIHQSQDALCTCPKLPHQGSFQIDEFVHTESSSTKMQLVKQRLETVTEVIRSCAAKVNKNLSFTSPPAVSSQQSKLKQSNMLTAQEILHQFGFTQTGIISIERKPCNHQVDTAPTVVALYDYTANRSDELTIHRGDIIRVFFKDNEDWWYGSIGKGQEGYFPANHVASETLYQELPPEIKERSPPLSPEEKTKIEKSPAPQKQSINKNKSQDFRLGSESMTHSEMRKEQSHEDQGHIMDTRMRKNKQAGRKVTLIE
B2: Jouberin (Homo sapiens), Q8N157 (parent)
chain: B1 chain
partner: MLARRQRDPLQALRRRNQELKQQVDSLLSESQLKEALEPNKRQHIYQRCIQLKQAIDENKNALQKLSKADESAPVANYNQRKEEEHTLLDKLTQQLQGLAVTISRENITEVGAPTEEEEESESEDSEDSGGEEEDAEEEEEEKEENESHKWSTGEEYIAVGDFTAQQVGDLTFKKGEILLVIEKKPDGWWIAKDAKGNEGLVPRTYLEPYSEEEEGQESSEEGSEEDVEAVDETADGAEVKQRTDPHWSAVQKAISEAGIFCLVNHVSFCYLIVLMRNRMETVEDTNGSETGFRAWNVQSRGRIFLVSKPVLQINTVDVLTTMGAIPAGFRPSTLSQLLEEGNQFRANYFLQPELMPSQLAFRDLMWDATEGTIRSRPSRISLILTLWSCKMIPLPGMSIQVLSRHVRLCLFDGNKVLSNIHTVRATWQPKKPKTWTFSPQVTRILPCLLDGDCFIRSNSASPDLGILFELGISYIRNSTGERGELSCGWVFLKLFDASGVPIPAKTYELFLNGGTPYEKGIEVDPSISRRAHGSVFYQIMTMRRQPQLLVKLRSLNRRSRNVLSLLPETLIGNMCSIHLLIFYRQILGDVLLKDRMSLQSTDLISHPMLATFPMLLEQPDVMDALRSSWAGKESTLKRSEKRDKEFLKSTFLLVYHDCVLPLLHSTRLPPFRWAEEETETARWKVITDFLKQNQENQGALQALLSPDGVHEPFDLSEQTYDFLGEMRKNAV

In one assay the parent is B1. Conditions: with hap1_human HAP1, P54257.
hap1_human HAP1, P54257, sequence (P54257 whole entry): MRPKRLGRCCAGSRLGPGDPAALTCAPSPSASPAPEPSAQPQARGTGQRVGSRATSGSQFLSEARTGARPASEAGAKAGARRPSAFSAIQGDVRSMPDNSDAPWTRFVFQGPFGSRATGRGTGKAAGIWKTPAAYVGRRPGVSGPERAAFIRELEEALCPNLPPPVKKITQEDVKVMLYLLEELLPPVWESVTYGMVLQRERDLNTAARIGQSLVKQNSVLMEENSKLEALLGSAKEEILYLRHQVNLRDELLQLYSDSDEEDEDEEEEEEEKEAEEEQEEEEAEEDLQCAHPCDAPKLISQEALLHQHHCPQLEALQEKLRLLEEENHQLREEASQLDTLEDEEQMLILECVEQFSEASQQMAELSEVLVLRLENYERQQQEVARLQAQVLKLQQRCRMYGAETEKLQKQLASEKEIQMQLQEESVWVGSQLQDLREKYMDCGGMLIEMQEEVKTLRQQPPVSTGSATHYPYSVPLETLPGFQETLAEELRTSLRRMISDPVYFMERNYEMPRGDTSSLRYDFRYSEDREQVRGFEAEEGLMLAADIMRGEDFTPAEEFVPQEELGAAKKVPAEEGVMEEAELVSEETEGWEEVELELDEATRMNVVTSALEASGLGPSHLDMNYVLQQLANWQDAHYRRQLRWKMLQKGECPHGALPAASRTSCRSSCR
Consider V443D, for which the “effect of a mutation on the interaction” value is “decreasing interaction”.

In a further assay the parent is B2. Conditions: with nphp1_human NPHP1, O15259.
Take V443D: the “effect of a mutation on the interaction” value is on record as “disrupting interaction”.
